The Human Domainome abundance scans (Beltran et al. 2025)
± gives the uncertainty stated by the source.

B1: POU domain, class 2, transcription factor 3, residues 186 to 260; numbered along this chain, Q9UKI9 (parent)
chain: SDLEELEKFAKTFKQRRIKLGFTQGDVGLAMGKLYGNDFSQTTISRFEALNLSFKNMCKLKPLLEKWLNDAESSP

Variants of: B1
Experiment: abundance fitness (aPCA) (normalised: wild type 0, dead -1); higher = more abundant; growth selection in yeast, the domain comes from the species named
Details: Homo sapiens
With N51P the abundance fitness was -0.844 ± 0.2. In the case of N51D, the abundance fitness is reported as -0.008 ± 0.089. In the case of N51L, the abundance fitness is reported as -0.035 ± 0.044. With N51Q the abundance fitness was -0.011 ± 0.056. In the case of N51V, the abundance fitness is reported as -0.1 ± 0.039. In the case of N51S, the abundance fitness is reported as 0.043 ± 0.034. Variant N51K has an abundance fitness of 0.069 ± 0.051. In the case of K19D, the abundance fitness is reported as 0.131 ± 0.22. K19A showed an abundance fitness of -0.321 ± 0.47. Work on K19L yielded an abundance fitness of 0.228 ± 0.41. Variant A10G has an abundance fitness of -0.064 ± 0.16. For S73Y, the abundance fitness was -0.121 ± 0.078. Variant S73N has an abundance fitness of 0.003 ± 0.061. In the case of S73F, the abundance fitness is reported as -0.077 ± 0.059. Work on S73T yielded an abundance fitness of -0.049 ± 0.051. Work on S73E yielded an abundance fitness of -0.04 ± 0.043. In the case of S73P, the abundance fitness is reported as -0.077 ± 0.065. Variant S73V has an abundance fitness of -0.038 ± 0.039. In the case of S73R, the abundance fitness is reported as -0.113 ± 0.031. S73A showed an abundance fitness of -0.012 ± 0.044. With L60E the abundance fitness was -0.847 ± 0.095. Variant L60Q has an abundance fitness of -0.242 ± 0.057. L60A showed an abundance fitness of -0.081 ± 0.035. L60P showed an abundance fitness of -0.855 ± 0.14. Variant L60T has an abundance fitness of -0.039 ± 0.04. Work on L60N yielded an abundance fitness of -0.395 ± 0.068. With L60R the abundance fitness was -0.519 ± 0.04. In the case of L60D, the abundance fitness is reported as -0.601 ± 0.11. L60V showed an abundance fitness of -0.02 ± 0.032. With L60W the abundance fitness was -0.074 ± 0.032. Variant L60G has an abundance fitness of -0.79 ± 0.055. G21D gave an abundance fitness of -0.373 ± 0.2. In the case of S74D, the abundance fitness is reported as -0.065 ± 0.075. S74M showed an abundance fitness of -0.131 ± 0.075. For S74C, the abundance fitness was -0.009 ± 0.06. S74G showed an abundance fitness of -0.084 ± 0.032. In the case of S74E, the abundance fitness is reported as -0.172 ± 0.07. S74I gave an abundance fitness of -0.033 ± 0.081. S74Q gave an abundance fitness of -0.017 ± 0.055. In the case of I18E, the abundance fitness is reported as 0.064 ± 0.031. I18T showed an abundance fitness of -0.041 ± 0.036. In the case of I18A, the abundance fitness is reported as -0.056 ± 0.031. Work on I18C yielded an abundance fitness of -0.143 ± 0.046. Variant I18F has an abundance fitness of -0.266 ± 0.076. Variant I18H has an abundance fitness of -0.133 ± 0.072. I18R showed an abundance fitness of -0.057 ± 0.025. For I18Q, the abundance fitness was 0.086 ± 0.038. In the case of I18Y, the abundance fitness is reported as -0.166 ± 0.054. Work on I18W yielded an abundance fitness of -0.31 ± 0.038. With W67I the abundance fitness was -0.419 ± 0.14. For W67C, the abundance fitness was -0.282 ± 0.053. For W67S, the abundance fitness was -0.741 ± 0.066. With W67H the abundance fitness was -0.44 ± 0.15. In the case of W67E, the abundance fitness is reported as -0.696 ± 0.073. Work on W67T yielded an abundance fitness of -0.612 ± 0.085. With W67Y the abundance fitness was 0.005 ± 0.064. Variant Q24A has an abundance fitness of -0.451 ± 0.44. Q24C showed an abundance fitness of -0.155 ± 0.19. In the case of L68T, the abundance fitness is reported as -0.317 ± 0.068. For L68C, the abundance fitness was -0.153 ± 0.052. In the case of L68S, the abundance fitness is reported as -0.285 ± 0.046. L68E gave an abundance fitness of -0.564 ± 0.07. L68W gave an abundance fitness of -0.43 ± 0.049. Variant L68M has an abundance fitness of -0.109 ± 0.081. Variant L68G has an abundance fitness of -0.563 ± 0.041. With L68I the abundance fitness was 0.006 ± 0.093. For L68Q, the abundance fitness was -0.311 ± 0.054. For L68Y, the abundance fitness was -0.298 ± 0.074. L68D gave an abundance fitness of -0.733 ± 0.14. Variant G36C has an abundance fitness of -0.18 ± 0.41. Work on M31C yielded an abundance fitness of -0.583 ± 0.31. M31R showed an abundance fitness of -0.746 ± 0.37. R46Q gave an abundance fitness of 0.014 ± 0.049. R46V showed an abundance fitness of -0.542 ± 0.048. R46N showed an abundance fitness of 0.011 ± 0.056. R46K gave an abundance fitness of 0.052 ± 0.045. A49M gave an abundance fitness of -0.201 ± 0.11. A49P showed an abundance fitness of -0.384 ± 0.21. A49S gave an abundance fitness of 0.089 ± 0.17. Work on A49L yielded an abundance fitness of -0.197 ± 0.12. Work on A71C yielded an abundance fitness of -0.169 ± 0.073. Work on A71L yielded an abundance fitness of 0.017 ± 0.035. Work on A71E yielded an abundance fitness of -0.01 ± 0.042.
